The data set concerns the molecule itself. Nature of the data set: negative-stain transmission electron microscopy and 2D classification of purified His-SYMREM1 (self-assembly).

The record followed here is patent publication US20230086871A1 (UNIVERSITY OF FREIBURG, published 2023).

B1: His-SYMREM1 (purified, recombinant Medicago truncatula SYMREM1 protein) (other)
chain: MEESKNKQLELVDTLTPLPQSESEPREFSYFLEEKEPGNEGTSSSVVKQERVVSDHATSSVDQTTAAGTDTKDSVDRDAVLARVESQKRLALIKAWEENEKTKVENRAYKMQSAVDLWEDDKKASIEAKFKGIEVKLDRKKSEYVEVMQNKIGEIHKSAEEKKAMIEAQKGEEILKVEETAAKFRTRGYQPRRLLGCFSGLRFFS
notes: also called Symbiotic Remorin 1; recombinant SYMREM1; not shown: N-terminal His tag and linker from the pDEST17 Gateway vector
In the case of B1, the binding result is reported as “binds”.
